This note sets out measurements from PMC12520357 (2025).

B1: Reg1-FLAG (wild type) [S. cerevisiae] / Glc7-GFP [S. cerevisiae] (parent complex)
chain 1: MSTNLANYFAGKKDIENEHVNRNASHESNSKSDVKISGNDNDNDEDMGPSVSMAVQAKNDDDFHKSTFNLKRTRSMGLLDEYIDPTKKLLGRSDDLYDNDNEYYDNSSNNSSSNSSDDDYDDGYQEHSTSVSPPPADNDSYLIPQDDNDVVVEPERHVDYLSHEWKESEISNSWKYIILKKKKRDVDLVNAARLENASWRTWAKARNNLKTVSPEVVNWSKDSDVTWLYGPIVRDSEGNAQSEEEHDLERGYGSDDENSKRISMPTKNSKSIAAAPKPILKKRTVTEIIEDNALWKLNEARKHMTEMKHASVIMDPNGNKNVHDDFDALAAQVNAQYYHYPKESNSSVSLKSQHSDKKDNSTIPNPVGENSNGGGDKGEEDLHLKSALHVQNNRSTAQSNKSILENSTNDRKANLDQNLNSPDNNRFPSSTSSSNRDNENNSMGLSSILTSNPSEKSNKPTKNRHIHFNDRVEQCMALRYPASQSEDDESDDENKQYVDVNNNANVTTINNNRTPLLAIQHKSIPINSATEHLNKNTSDDDTSSQSSSSSHSDDEEHGGLYINARFSRRSDSGVHSPITDNSSVASSTTSRAHVRPIIKLLPDTTLNYGSDEESDNGEFNGYGNAVSHNVNTSRGYDYIYDYNSVYTGDTSSFLPVDSCDIVDVPEGMDLQTAIADDNASNYEFNNAVESKEKHVPQLHKASANNTTRQHGSHMLLYDDDNYSSSSDSEQQFIEDSQYNSSDDEEEEDDDDQEVDDNHDEGLSLRRTLSLGKSGSTNSLYDLAQPSLSSATPQQKNPTNFTGGKTDVDKDAQLAVRPYPLKRNSSSGNFIFNSDSEEESSSEEEQRPLPANSQLVNRSVLKGSVTPANISSQKKKALPKQPKASDSSQSFRIVNNTPSPAEVGASDVAIEGYFSPRNESIKSVVSGGNMMDHQDHSEMDTLAKGFENCHINNASKLKDKKVDSVQTTRKEASLTDSSNESLHKVVQNARGMASKYLHSWKKSDVKPQENGNDSS
chain 2: MDSQPVDVDNIIDRLLEVRGSKPGQQVDLEENEIRYLCSKARSIFIKQPILLELEAPIKICGDIHGQYYDLLRLFEYGGFPPESNYLFLGDYVDRGKQSLETICLLLAYKIKYPENFFILRGNHECASINRIYGFYDECKRRYNIKLWKTFTDCFNCLPIAAIIDEKIFCMHGGLSPDLNSMEQIRRVMRPTDIPDVGLLCDLLWSDPDKDIVGWSENDRGVSFTFGPDVVNRFLQKQDMELICRAHQVVEDGYEFFSKRQLVTLFSAPNYCGEFDNAGAMMSVDESLLCSFQILKPAQKSLPRQAGGRKKK
B2: Reg1-FLAG (wild type) [S. cerevisiae] / Snf1-GFP [S. cerevisiae] (parent complex)
chain 1: B1 chain 1
chain 2: MSSNNNTNTAPANANSSHHHHHHHHHHHHHGHGGSNSTLNNPKSSLADGAHIGNYQIVKTLGEGSFGKVKLAYHTTTGQKVALKIINKKVLAKSDMQGRIEREISYLRLLRHPHIIKLYDVIKSKDEIIMVIEYAGNELFDYIVQRDKMSEQEARRFFQQIISAVEYCHRHKIVHRDLKPENLLLDEHLNVKIADFGLSNIMTDGNFLKTSCGSPNYAAPEVISGKLYAGPEVDVWSCGVILYVMLCRRLPFDDESIPVLFKNISNGVYTLPKFLSPGAAGLIKRMLIVNPLNRISIHEIMQDDWFKVDLPEYLLPPDLKPHPEEENENNDSKKDGSSPDNDEIDDNLVNILSSTMGYEKDEIYESLESSEDTPAFNEIRDAYMLIKENKSLIKDMKANKSVSDELDTFLSQSPPTFQQQSKSHQKSQVDHETAKQHARRMASAITQQRTYHQSPFMDQYKEEDSTVSILPTSLPQIHRANMLAQGSPAASKISPLVTKKSKTRWHFGIRSRSYPLDVMGEIYIALKNLGAEWAKPSEEDLWTIKLRWKYDIGNKTNTNEKIPDLMKMVIQLFQIETNNYLVDFKFDGWESSYGDDTTVSNISEDEMSTFSAYPFLHLTTKLIMELAVNSQSN

The variants in one assay derive from B1. The assay can be described thus: co-immunoprecipitation (anti-FLAG IP, immunoblot quantification); n = 3; reg1Δ Snf1-GFP Glc7-GFP cells; parent: 1; read off a plot. A general note: In western blotting, separated proteins are transferred to a membrane and probed.
chain 1 P231S: the ratio to parent is approximately 0.81.

On to chain 1 N624S, for which the ratio to parent was approximately 1.5.

With chain 1 P278Q, the ratio to parent is approximately 0.8.

With chain 1 A54T, the ratio to parent is approximately 0.93. Regarding chain 1 W165G, the ratio to parent was approximately 0.66.

In a further assay the parent is B2. The assay is described as above.
chain 1 A54T: the ratio to parent was approximately 0.84. Regarding chain 1 W165G, the ratio to parent is approximately 0.8. For chain 1 P278Q, the ratio to parent is approximately 0.95. In the case of chain 1 N624S, the ratio to parent is approximately 0.74. chain 1 P231S: the ratio to parent is approximately 1.1.
